In PMC11117068:

Target: complement C3b (UniProt P01024)
Test: not stated; C3b binding affinity of polymorphic variants, data in Supplementary Table S3

fold lower C3b binding affinity than the CPV-101 Ile62/Tyr402 variant: 1.5 fold
Substance: moss-produced factor H Val62/His402 variant (from UniProt P08603 19-1231) (natural protein)
